One substance from patent US4701455A, “Biopterin analogs” (Burroughs Wellcome Co., priority 1983, dated 1987) can be followed below.

For the data set, the system named is C[C@H](O)[C@H](O)[C@H]1CNc2nc(N)[nH]c(=O)c2N1. In words: purified protein, by the assay type. To be noted: other: Km of substrate (tyrosine) with the pterin as cofactor.

Sequence of Tyrosine hydroxylase (Homo sapiens) (chain, as listed by the source): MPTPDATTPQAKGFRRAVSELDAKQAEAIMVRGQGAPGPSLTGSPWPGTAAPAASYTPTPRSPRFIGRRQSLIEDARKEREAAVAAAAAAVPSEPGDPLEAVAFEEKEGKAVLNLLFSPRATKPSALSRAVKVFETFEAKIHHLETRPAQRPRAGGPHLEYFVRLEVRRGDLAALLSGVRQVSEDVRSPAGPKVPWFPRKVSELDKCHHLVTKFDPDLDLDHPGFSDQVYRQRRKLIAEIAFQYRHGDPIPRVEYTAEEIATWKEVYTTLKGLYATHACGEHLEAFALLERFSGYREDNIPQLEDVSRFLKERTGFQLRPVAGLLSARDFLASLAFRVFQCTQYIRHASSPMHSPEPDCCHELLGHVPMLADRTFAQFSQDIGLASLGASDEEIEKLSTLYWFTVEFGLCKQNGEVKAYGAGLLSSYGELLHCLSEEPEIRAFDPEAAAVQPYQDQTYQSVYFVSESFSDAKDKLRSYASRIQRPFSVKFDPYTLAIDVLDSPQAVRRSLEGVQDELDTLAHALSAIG

Regarding Tyrosine hydroxylase (Homo sapiens), the Michaelis-Menten constant (Km) stood at 16.0 µM.
